Experimental data from the DeepSol protein solubility set.

assay: soluble on expression in E. coli; label from the status in PepcDB or PDB records

| Sequence | soluble on expression in E. coli |
| --- | --- |
| MGSDKIHHHHHHMFDWNDVRFFLALQRNGKLLGAARQMGTTHATVARHIAALEKVLGQPLFVQQADGYSLTAAGRQLLPLAESLENTASQMLDSGSKGHAEVSGVVRLGAPEGLGALFLARHMPALMARYPELEIDLVAVPRFVSVTSREVDIAIALERPQANMVVTRKLTDYCLGLYATQAYLAAHPPIREREDLNGHAILAYVDDLLFTRELMYHHGLCRHPSMPLRSTSVVAQREAALADGGIAVLPYYTTYDDPRLTQILPELRIIRSYWISARSNIRRTLRYRVVWDYVVELCQNMQWLLLQEEQNRSIETA | not soluble |
| MNFFTSPFSGIPLDQQVTNPNIIVGKHSYYSGYYHGHSFDDCVRYLHPERDDVDKLVIGSFCSIGSGAVFMMAGNQGHRSDWISTFPFFYQDNDNFADARDGFTRSGDTIIGHDVWIGTEAMIMPGVKIGHGAIIASRSVVTKDVAPYEVVGSNPAKHIKFRFSDVEIAMLLEMAWWNWPESWLKESMQSLCSSDIEGLYLNWQSKART | not soluble |
| MAHHHHHHMKKKNNNKLHYLDSKGKLYTSGLRSDTKEKYGEIPSSNKNHNLIEKYNELQSLLSKEEEKYDFVKNELGDLQKQKDLLKWHLCNNIKKLSMKRSDYKFKTETKSKLESKLKSLKDMNKIHKFEHDTLEELVHKMEQELETKMYIKNDIENIFNECINKKDEYLKDITQERISVFKERKKRQNQLQKLLLIMKQENNKNYNINYLKKYESNLMNEINSYKNYKDFETKIAMDLIDDHSLNDLYVT | not soluble |
| LDSANQQASNESIEVRGKIKLGLLPETYEHLQPILFEFQDQYPQVELDIRNINNGFIDMFQQGLDIALHGGMLFDSDIVARKILTLDRCVVASPNYLQTHGTPATLEELSDHQCICFRWPNGNVDNLWHFQEQNVALKPKLISNNIGFIKSSTVLDRGISYIPKLLVKNELESGALVQVLSQYAVTEETGWLLYPQPKTLNQASRLLIEHLCNKIPKLL | soluble |
| VLLLDVTPLSLGIETLGGVFTRLIPRNTTIPTKKSQIFSTAAAGQTSVEIRVFQGERELVRDNKLIGNFTLAGIPPAPKGVPQIEVTFDIDADGIINVSARDKATNKDSSITVAGSSGLSENEIEQMVNDAEKFKSQDEARKQAIETANKADQLANDTENSLKEFEGKVDKAEAQKVRDQITSLKELVARVQGGEEVNAEELKTKTEELQTSSMKLFEQLYKNDSNNNNNNNGNNAESGETKQ | soluble |
| NTKDEAYNVATQATYAVAEQQTGSGDVVAVDDNVQMSKVSTVTINVLGNDIIADGVSVEISAMSAPSKGTVKLLSDGSIQYTPAKRFKNQDSFS | not soluble |
| MRGGMGNMQKMMKQMQKMQKDMAKAQEELAEKVVEGTAGGGMVTVKANGQKEILDVIIKEEVVDPEDIDMLQDLVLAATNEALKKVDEITNETMGQFTKGMNMPGLF | soluble |
| MGSDKIHHHHHHMSDYNFAYLDEQTKRMIRRAILKGLAIPGYQVPFASREMPMPYGWGTGGVQVSAAALTPDDTFKVIDQGADDTTNAVSIRKFFERTAGVATTEETEKASIIQTRHRIPEADLREDQILVYQVPIPEPLRFLEPRETETRKMHALEEYGLMHVKLYEDISQHGAIATSYAYPVKVEGRYVMDPSPIPKFDNPKMEMAAIQLFGAGREQRIYAVPPYTKVVSLDFEDYPFEATKAEHPCDLCAAEDSYLDEVIVDDQGGRMFVCSDTDYCRSRREAGHVGRLGQNAPLNTGPEAA | not soluble |
| EVQLQESGPSLVKPSQTLSLTCSVTGDSVTSDFWSWIRKFPGNKLEYMGYISYSGSTYYHPSLKSRISITRDTSKNQYYLQLNSVTTEDTATYYCASWGGDVWGAGTTVTVSSAKTTAPSVYPLAPVCGDTTGSSVTLGCLVKGYFPEPVTLTWNSGSLSSGVHTFPAVLQSDLYTLSSSVTVTSSTWPSQSITCNVAHPASSTKVDKKI | soluble |
| MDGYQLTFSNNKRSDKSIVSEKLQRDCDPPITQKYFWSSGGHTFHFRAAAAEKNVTPFSTKMQGKYIKKKAM | not soluble |
| MGSDKIHHHHHHMLERRDKEITDLKRRVANMVVVGKISHVDHKNARYRVKTGNLVSDWIPDTQARAGKTRSYEGRDVGEQVVVVSSSGDLSQGVIVGSIHTDANQAADKGNLHKTLYPDGTTIEYDDEQNSYALHLTSGGKFSLTISDGVSIKGDGKKLELQAAEGIKIISQGDLSLSAEKNIALKAGGSVSLHSDDGIALHSSEGVSIHSSDLKHNGTNIGNSHVHGGVSPGGSMTGGPN | not soluble |
| MGSDKIHHHHHHVSSDQVAVAGNAERLFNGAWYNLFEYGTTYANIGYRALQCQDDMMASDVVSRPKYGFNSSYQFNDVAIPSDGRTSFAWYLIYKTIDNCNTAISIKGDSEELRQAQGQALALRAFCYLHLVQHYQFTYLKDKDAPCVPIYTEPTTSGTKPKGKSTVAQVYQQIFDDLNLAQDYLTNYVRKGDGQKFKPNTDVVNGLMARAYLLTGQWGEAAKAAEAARKGYSLMTTTAEYEGFNNISNKEWIWGSPQTLSQSDASYNFYYLDATYVGAYSSFMADPHLMDTFVKGDIRLPLFQWMREGYLGYKKFHMRSDDTADLVLMRSAEMYLIEAEAKVRDGVALDQAVAPLNTLRTARGVGNYDVTGKTKEQVIDEILMERRRELWGEGFGITDVLRNQKAVERMALSEDMQKTEVDCWQEGGSFAKRNPLGHWFLNFPDGKAFSANSSYYLYAIPEKEINANPNL | not soluble |
| MILFDYKLLAALAAVVEQGGFERAAQALGLSQSAVSQRIKLLEARVGQPVLVRETPPHPTDLGRRLLNHVQQVRLLEGDLQRWVPNLDEGGAPERLRIALNADSLATWWAAAVGDFCAERRVLLDLVVEDQEVGLKRMRAGEVAGCVCGSARPVAGARSLLLGAMRYRGLASPDFIARHFPRGVEAAALAGVPAIVFGPDDLLQHRFLKDLGVEGGFIHHLCPSSEGFVRLTAGGLGWGLVPERQVQGELARGELVELLPGQVIDVPLYWHYWRNGGELLASLTEHLLARAGDGLVRVSG | not soluble |
| MAHHHHHHMTENFLIFGLPFLPQCNDTLPSSQFKCLVAEMGPLGQALRPFVVPTLKVGTLDSLIEASDELAKLDPQLENNVEKLIALMEETSQKPRSVVSALRINQTQEMTPAAYIKNFLWSSAQFDTREKIQSLIEKLSQISASIEERIRVLLSEYNETRNRLTAVNRKTQGNLSVKPIRELVASYNQKFQCFVDTEMLVTLFVVVPLASQKEWLETYWSLNEFVCPQSNRVIAEDKECVLNSIVTFRKAMDDVKMICRKKRFTVRDIDGVDDLSVAEVKELNQKAEKERKALYTVLWQQYSLCYVAWVHVKALRVFVESLLKYGLPPRCISVVLQVDGKKEAEIRKKILQIYPNLISPLTNEPPTDTGMLQYEYPYVSLKVTNFQKD | not soluble |
| MGSDKIHHHHHHMLSGENKMLDIDKSTVDFLVTENMVQEVEKVLSHDVPLVHAIVEEMVKRDIDRIYFVACGSPLNAAQTAKHLADRFSDLQVYAISGWEFCDNTPYRLDDRCAVIGVSDYGKTEEVIKALELGRACGALTAAFTKRADSPITSAAEFSIDYQADCIWEIHLLLCYSVVLEMITRLAPNAEIGKIKNDLKQLPNALGHLVRTWEEKGRQLGELASQWPMIYTVAAGPLRPLGYKEGIVTLMEFTWTHGCVIESGEFRHGPLEIVEPGVPFLFLLGNDESRHTTERAINFVKQRTDNVIVIDYAEISQGLHPWLAPFLMFVPMEWLCYYLSIYKDHNPDERRYYGGLVEY | not soluble |
| MGNQRHHYNDYEDVRMLKWVARNDKSLGPFGIITWQLYVEAYNCPYSVQSLCGRMRRQIVPNIDYYSRHLKSSDLISLERRFGSRLGAETRKYIRNLAVKTVKIVQVVASRPVEKNSEIEVQKVASLELQAAPTAPTTSAAQLGKTKSPGARTQRIERNDELSRDVFESSCASTIVEPEPPQEEPPQRSHNWKTEMRKIAGQAAQAINDLIRQTVENNDFNKKMFAELENQQNLDHLYGKMFDDPNKADWIMIDVKKFTENHLRMQYFRKIREELHKRFTNQHIIRAVFCFFQFFEYYVTVCVDESTDNYILLMNKVLEMSIKLLPLYIVHC | not soluble |
| QNFAIPTSSLEKTLLIGDYLFVSKLSYGPRSPMTPLGVPLTHNTMPLTGGKSFSDKPLLPYKRLKGFGHVKEGDLVVFNFPAGDTVAVKQPNPDYYMWKKLVGREELWSNPDFYGEIVYRPVDRRDHYVKRCVGMPGQELSIRNNQIYIDGKEQRNPRNMQLNYLVRMSREMSVDLIDELGISYDDVRAASSEELKASVGSNLIDSASNQPQIIYHLPLTQGMLDKLQAEPSFVKAVEEPTPIGPLYPLEYETGWTRDNYGPIVIPAKGMTVRLTPLNLALYSRCIRNFEGNKLVQKADGTVLINGRPADSYTFKMDY | not soluble |
| MIKRYTCPNGVRIVLENNPTVRSVAIGVWIGTGSRHETPEINGISHFLEHMFFKGTSTKSAREIAESFDRIGGQVNAFTSKEYTCYYAKVLDEHANYALDVLADMFFHSTFDENELKKEKNVVYEEIKMYEDAPDDIVHDLLSKATYGNHSLGYPILGTEETLASFNGDSLRQYMHDYYTPDRVVISVAGNISDSFIKDVEKWFGSYEAKGKATGLEKPEFHTEKLTRKKETEQAHLCLGFKGLEVGHERIYDLIVLNNVLGGSMSSRLFQDVREDKGLAYSVYSYHSSYEDSGMLTIYGGTGANQLQQLSETIQETLATLKRDGITSKELENSKEQMKGSLMLSLESTNSKMSRNGKNELLLGKHKTLDEIINELNAVNLERVNGLARQLFTEDYALALISPSGNMPS | not soluble |
| VMNRMATALGGDYFDFISMPDGREVVFIGDVTGHDIQSSVVMSLVYGFLHHCALTVDDPLTMVSQLNRFLVRFADHGTELDHHFSSTLFLGIIDPASLRLEYVNAGHVPPLVLRRNSLHRLASTSPPVGFFAEAEVATGCFGLERGDRLLLYTDGILDASNGTETFGAERLDAFLTATGGSYTRFMDELAAALRDFGAGDPPDDDCSAIVIDI | not soluble |
| MDNKALLTHVDINNVVCAMPLPYTRLYEGLASGLKAQFDGIPFYYAHMRGADIRVECLLNGVYDMAVVSRLAAESYLTQKGLCLALELGPHTYVGEHQLICRKGESANVKRVGLDNRSADQKIMTDVFFGGSDVERVDLSYHESLQRIVKGDVDAVIWNVVAENELTMLGLEATPLTDDPRFLQATEAVVLTRVDDYPMQQLLRAVVDKHALLAHQQRVVSGEQEPSY | soluble |
| SLMKQIKHFNQNYQELRQLGKVAIGRRAGKLKAGTIILFAVDSQGKILAARKMQGVTVLAKFHPLPQYVNEDIHYMDHYHPLVQKENKLTQQAMENAREIYLRVELGNYQETQPLTPLNGAKIQWQLWKNKVQTKLKGSVE | soluble |
| MKVFDVHKFDMKKEQDFLQVQFNLKNRINLSPTIHPDSINTGAGVDLAYWEQDGEPYGVCCIIVIDADTKEVIEKVHSMGRISVPYVSGFLAFRELPLIIEAAKKLETEPDVFLFDGNGYLHYNHMGVATHAAFFLGKPTIGIAKTYLKIKGCDFVTPEIEVGAYTDIIIDGEVYGRALRTRRDVKPIFLSCGNYIDLDSSYQITMSLINQESRLPIPVRLADLETHVLRTFYQKNHVLEHHHHHH | soluble |
| SGGGGGVLWDTPSPKEYKKGDTTTGVYRIMTRGLLGSYQAGAGVMVEGVFHTLWHTTKGAALMSGEGRLDPYWGSVKEDRLCYGGPWKLQHKWNGQDEVQMIVVEPGKNVKNVRTKPGVFKTPEGEIGAVTLDFPTGTSGSPIVDKNGDVIGLYGNGVIMPNGSYISAIVQGKRMDEPIPAGFEPEMLGSRSHHHHHH | soluble |
| MGSDKIHHHHHHLNAKIVCVSNKQLTISLDDFSGPLDLLLHLIRTQELDIFDLPIAKVTDQFLSFIDNQLNPSLDSAGEYLYMASTLIRIKSRFLLPTVKNEQEDEKEEDPRNELVNALIEYECYQAVTQDMSELEHSRSLSFTRPVAKIPENIEIKPLSAGVTLQDLQKAFLEIANRQKDLHPKKRTIERENFSVADKINEIKTFFGQKKLDSKIEFQYLFKLSSSNDEMITTFLAILELAKDHFILLSQNDEQQIFLTKGEMNA | not soluble |
